Laboratory results published in patent publication US20250340655A1, “EPHA2-TARGETING ANTIBODIES AND THEIR APPLICATIONS IN CANCER TREATMENT” (TAIPEI MEDICAL UNIVERSITY, priority 2022, published 2025).
Each block holds one molecule with its values, some of them ahead of it.

How the values were obtained:
[1] = biological target: T1, EphA7 overexpressed on 293T cells (UniProt Q15375 28-998, limits assumed); experiment: flow cytometry on 293T cells overexpressing EphA1-A8
T1 construct: whole, on cells
T1 sequence (Q15375 28-998 limits assumed): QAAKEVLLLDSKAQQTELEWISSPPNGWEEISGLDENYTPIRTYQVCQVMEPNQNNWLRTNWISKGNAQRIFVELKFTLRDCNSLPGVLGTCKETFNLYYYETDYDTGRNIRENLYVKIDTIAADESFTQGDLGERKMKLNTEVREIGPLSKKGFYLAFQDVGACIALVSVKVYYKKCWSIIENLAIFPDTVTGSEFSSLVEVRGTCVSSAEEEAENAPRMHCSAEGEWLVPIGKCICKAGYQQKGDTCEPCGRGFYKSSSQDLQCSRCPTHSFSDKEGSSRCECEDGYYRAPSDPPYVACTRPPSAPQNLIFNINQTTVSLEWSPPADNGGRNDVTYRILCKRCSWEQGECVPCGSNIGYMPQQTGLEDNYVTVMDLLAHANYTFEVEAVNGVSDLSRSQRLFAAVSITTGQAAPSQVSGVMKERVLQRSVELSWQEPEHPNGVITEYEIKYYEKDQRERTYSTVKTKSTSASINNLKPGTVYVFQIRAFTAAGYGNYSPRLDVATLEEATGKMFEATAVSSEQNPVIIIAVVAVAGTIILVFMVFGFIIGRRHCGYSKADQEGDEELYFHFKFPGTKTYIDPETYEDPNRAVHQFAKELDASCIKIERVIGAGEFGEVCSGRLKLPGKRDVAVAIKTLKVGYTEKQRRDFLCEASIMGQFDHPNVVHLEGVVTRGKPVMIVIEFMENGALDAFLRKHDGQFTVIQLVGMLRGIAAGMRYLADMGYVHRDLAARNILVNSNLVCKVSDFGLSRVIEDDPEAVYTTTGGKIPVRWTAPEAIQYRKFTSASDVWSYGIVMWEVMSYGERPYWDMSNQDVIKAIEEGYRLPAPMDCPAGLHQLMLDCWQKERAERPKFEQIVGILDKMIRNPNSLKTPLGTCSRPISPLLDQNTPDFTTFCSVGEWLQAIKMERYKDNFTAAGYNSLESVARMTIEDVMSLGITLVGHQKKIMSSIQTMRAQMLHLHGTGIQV
Method: (§1) To detect the binding specificity of scFv, 293T cells were transformed with EphA1-A8 plasmids individually for overexpression of different EphA molecules. The cell line was freshly prepared and washed with FACS buffer (2% FBS in PBS). The cells were seeded at 1×10⁵ cells/well into a 96-well Ubottom plate and incubated with scFv for 1 h at 4° C. After the plate was washed with FACS buffer, the anti-hemagglutinin (HA) antibody was added for scFv binding detection (scFv was fused with a HA tag) and subsequently developed using an FITC-conjugated secondary antibody. Finally, the cell binding signal was analyzed using a FACS can flow cytometer.

[2] = biological target: T2, EphA8 overexpressed on 293T cells (UniProt P29322 28-1005, limits assumed); experiment: as above
T2 construct: whole, on cells
T2 sequence (looked up): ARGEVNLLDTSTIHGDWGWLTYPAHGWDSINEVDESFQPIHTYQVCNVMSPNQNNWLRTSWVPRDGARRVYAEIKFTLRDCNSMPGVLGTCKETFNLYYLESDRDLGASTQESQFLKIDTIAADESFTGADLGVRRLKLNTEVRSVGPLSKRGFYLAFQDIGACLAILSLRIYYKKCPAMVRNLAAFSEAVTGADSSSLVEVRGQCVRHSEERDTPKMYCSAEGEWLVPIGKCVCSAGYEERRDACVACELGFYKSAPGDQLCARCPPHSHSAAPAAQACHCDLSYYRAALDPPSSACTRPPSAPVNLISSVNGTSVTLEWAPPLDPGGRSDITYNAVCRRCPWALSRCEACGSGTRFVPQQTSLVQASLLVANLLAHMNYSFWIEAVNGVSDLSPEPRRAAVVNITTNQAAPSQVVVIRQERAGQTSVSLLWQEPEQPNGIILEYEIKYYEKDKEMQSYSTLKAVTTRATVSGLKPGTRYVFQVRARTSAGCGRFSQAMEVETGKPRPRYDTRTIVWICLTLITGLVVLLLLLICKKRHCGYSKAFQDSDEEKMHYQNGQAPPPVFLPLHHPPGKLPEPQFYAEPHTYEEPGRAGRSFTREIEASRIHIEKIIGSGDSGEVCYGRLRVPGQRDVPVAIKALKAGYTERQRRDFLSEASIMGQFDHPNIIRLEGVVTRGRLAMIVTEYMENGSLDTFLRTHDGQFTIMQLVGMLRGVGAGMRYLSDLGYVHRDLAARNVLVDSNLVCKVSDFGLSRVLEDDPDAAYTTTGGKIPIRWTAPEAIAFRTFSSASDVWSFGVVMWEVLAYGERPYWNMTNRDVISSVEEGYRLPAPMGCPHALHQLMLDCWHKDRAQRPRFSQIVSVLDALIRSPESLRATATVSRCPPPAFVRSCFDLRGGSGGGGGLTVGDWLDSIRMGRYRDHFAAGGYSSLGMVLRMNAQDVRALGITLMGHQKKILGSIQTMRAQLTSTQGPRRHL
Method: as §1

[3] = biological target: T3, endogenous EphA2 molecule on colon cancer cells (HCT116, SW480 and SW460) (Homo sapiens, UniProt P29317); experiment: Flow cytometry binding on colon cancer cells; conditions: flow cytometry (FIG. 18B)
T3 construct: endogenous in cells; host or cells: HCT116, SW480, SW460
T3 sequence (P29317 24-976): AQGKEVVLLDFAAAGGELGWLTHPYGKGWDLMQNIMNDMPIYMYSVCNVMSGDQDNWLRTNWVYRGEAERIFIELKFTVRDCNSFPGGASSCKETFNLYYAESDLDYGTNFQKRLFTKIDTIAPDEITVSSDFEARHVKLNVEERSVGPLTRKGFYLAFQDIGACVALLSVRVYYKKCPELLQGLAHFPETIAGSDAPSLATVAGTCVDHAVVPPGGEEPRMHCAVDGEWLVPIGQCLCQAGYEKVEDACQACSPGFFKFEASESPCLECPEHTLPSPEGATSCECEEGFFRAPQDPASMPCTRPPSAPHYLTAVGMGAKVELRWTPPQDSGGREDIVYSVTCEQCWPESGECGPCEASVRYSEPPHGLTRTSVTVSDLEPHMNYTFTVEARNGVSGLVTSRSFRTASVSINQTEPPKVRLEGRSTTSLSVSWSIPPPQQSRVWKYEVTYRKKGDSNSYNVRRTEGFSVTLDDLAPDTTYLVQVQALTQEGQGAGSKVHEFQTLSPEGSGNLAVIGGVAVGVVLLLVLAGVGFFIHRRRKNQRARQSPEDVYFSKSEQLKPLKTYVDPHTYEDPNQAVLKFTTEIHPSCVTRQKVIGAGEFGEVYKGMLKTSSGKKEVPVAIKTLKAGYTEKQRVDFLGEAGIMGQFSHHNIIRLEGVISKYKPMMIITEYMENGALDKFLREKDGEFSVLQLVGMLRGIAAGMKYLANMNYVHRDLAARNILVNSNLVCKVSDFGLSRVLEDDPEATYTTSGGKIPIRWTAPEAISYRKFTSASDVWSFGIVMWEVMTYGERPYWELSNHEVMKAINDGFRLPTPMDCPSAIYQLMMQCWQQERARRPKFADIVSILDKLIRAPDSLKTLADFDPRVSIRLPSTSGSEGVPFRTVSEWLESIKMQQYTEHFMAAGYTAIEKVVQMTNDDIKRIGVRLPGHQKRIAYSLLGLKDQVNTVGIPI

[4] = biological target: T4, endogenous EphA2 molecules on cholagiocarcinoma cell lines (HuCCT1, ssp-25, RBE, TFK) and bladder cancer cell line (PC-3) (Homo sapiens, UniProt P29317); experiment: Flow cytometry binding on cholagiocarcinoma and bladder cancer cell lines; conditions: cholagiocarcinoma and bladder cancer cell lines (FIG. 17B)
T4 construct: endogenous in cells; host or cells: HuCCT1, ssp-25, RBE, TFK, PC-3
T4 sequence (P29317 24-976): as above
Text: Flow cytometry was used to analyze the response of hSD5 IgG with different concentrations in identifying endogenous EphA2 molecules on the four strains of cholagiocarcinoma cell lines and bladder cancer cell line. PC represents the use of commercial Ab to determine the expression of EphA2 on cancer cells.

SNU-16, N87 and MKN-45 = experiment: MTS growth inhibition, gastric cancer cells; type: cell-based; conditions: 3 days (FIG. 15B)
Method: The growth inhibitory effect of hSD5-ADC on the three strains of gastric cancer cells were tested under different concentrations. At indicated concentrations interacted with the cancer cells for 3 days, and the effects on the growth of cancer cells were observed by MTS assay. […] (FIG. 15B)

HCT116, SW480 and SW460 = experiment: MTS growth inhibition, colon cancer cells; type: cell-based; conditions: 3 days (FIG. 18C)
Method: The growth inhibitory effect of hSD5-ADC on the three strains of colon cancer cells were tested under different concentrations. At indicated concentrations interacted with the cancer cells for 3 days, and the effects on the growth of cancer cells were observed by MTS assay. (FIG. 18C)

binding result [1]: no binding
binding result [2]: no binding
B1: Humanized scFv hSD5 (scFv)
scFv: LTQPPSVSVSPGQTVRITCSGSSGSYGWYQQKSPGQAPVTLIYDNDKRPSGIPERFSGSSSGSTSTLTISGVQAEDEADYYCGSADSSTYVGMFGGGTKLTVLGQSSRSSQVQLVESGGGLVQPGGSLRLSCAASGFTFSDYGMGWVRQAPGKGLEWVAGISAAGSFTPYGAAVKGRFTISRDNSKNTVYLQMNSLRAEDTAVYYCARIPSGYRAGEIYTWGQGTLVTVSS
notes: also called hSD5 scFv; Humanized scFv hSDS

binding response to EphA2 molecules on cancer cells [3]: significant binding response
binding response to EphA2 molecules on cancer cells [4]: significant binding response
B2: IgG hSD5: complete humanized anti-EphA2 IgG (IgG1) of hSD5 (antibody, V domains shown)
VH: QVQLVESGGGLVQPGGSLRLSCAASGFTFSDYGMGWVRQAPGKGLEWVAGISAAGSFTPYGAAVKGRFTISRDNSKNTVYLQMNSLRAEDTAVYYCARIPSGYRAGEIYTWGQGTLVTVSS
VL: LTQPPSVSVSPGQTVRITCSGSSGSYGWYQQKSPGQAPVTLIYDNDKRPSGIPERFSGSSSGSTSTLTISGVQAEDEADYYCGSADSSTYVGMFGGGTKLTVL
growth inhibitory response of gastric cancer cells (SNU-16, N87 and MKN-45): does not provide ideal inhibition effect
growth inhibitory response of colon cancer cells (HCT116, SW480 and SW460): does not provide ideal inhibition effect
